Key:
SCO7468 = SCO7468 (Streptomyces coelicolor, UniProt Q8CJJ9); experiment: methanol denaturation and reverse-phase HPLC of co-purified flavin; type: binding; conditions: tightly bound
[1] = substrate: N[C@@H](Cc1c[nH]c2ccccc12)C(=O)O; experiment: LC-MS/MS quantification of aldoxime product (IAOx); type: biochemical, Streptomyces coelicolor; conditions: 1 mM NADPH, 20 μM FAD, 100 mM Tris-HCl pH 8.0, 30 °C
[2] = substrate: CC(C)=CCc1ccc2[nH]cc(C[C@H](N)C(=O)O)c2c1; experiment: LC-MS/MS quantification of aldoxime product (5-DMAIAOx); type: biochemical, Streptomyces coelicolor; conditions: 1 mM NADPH, 20 μM FAD, 100 mM Tris-HCl pH 8.0, 30 °C
purified protein [3] = substrate: CC(C)=CCOP(=O)(O)OP(=O)(O)O; experiment: purified protein; type: biochemical, Streptomyces coelicolor; conditions: L-tryptophan 1 mM fixed, 2 mM MgCl2, 100 mM Tris-HCl pH 8.0, 30 °C
purified protein [4] = substrate: N[C@@H](Cc1c[nH]c2ccccc12)C(=O)O; experiment: purified protein; type: biochemical, Streptomyces coelicolor; conditions: DMAPP 1 mM fixed, 2 mM MgCl2, 100 mM Tris-HCl pH 8.0, 30 °C

With `Cc1cc2nc3c(=O)[nH]c(=O)nc-3n(C[C@H](O)[C@H](O)[C@H](O)COP(=O)(O)OP(=O)(O)OC[C@H]3O[C@@H](n4cnc5c(N)ncnc54)[C@H](O)[C@@H]3O)c2cc1C` [FAD] the “methanol denaturation and reverse-phase HPLC of co-purified flavin” value (SCO7468) was “FAD existed in the recombinant SCO7468 protein as a tightly bound form”.

B1: SCO7468 (Streptomyces coelicolor A3(2)) (protein)
chain: MRVCVIGAGLSGLAMGHALKERGISFVCLEKAPDVGGIWRQPGAGERGPGYQSLHLNTARQLTGYADFPMPSDYPLYPRHDQVAAYLRSFAEWAGLLDHVELRTEVLSVRQDSDGSWTVVSRDADGAQSARRFEQVVVASGHHTDPALPDPLPAGADSFAGTILHSLDYRDGGDFAGRRVVVVGLGASAVDIAADLSRHAERTLLSVRRGLHIVPKQVFGMSLDEIAEAPWWNEMPFAERRRWVEQALLVARGRLSDYGLPEPDHPILSSATTLSDEILSRIRHGAVTPKPAIASFESDRVVFTDGSSEAADTVVYCTGFHMTFPFLPPGCPVAADGAVELYRRIVPADRPGLYFVGLVRPAGALTRLVEAQAQWVARLVDGAAALPGTEEMREEISTYLAGIVERYGRTRGASIQVDVSPYLAEFREPLPV
For B1, the Km [1] was “(3.3 ± 0.7) ×10^3 μM”, the kcat [1] was “(5.2 ± 0.4) ×10^−3 s^−1” and the Km [2] was 0.57 ± 0.1 µM. The kcat [2] was “(8.2 ± 0.7) ×10^−3 s^−1”.

B2: SCO7467 (Streptomyces coelicolor A3(2)) (protein)
chain: MRAASTGADPQDASTLGSFTGGQLRRLGSVAGLSRADVETYAQVLTDALGPVAQRPLSLAPPTRTFLSDDHTPVEFSLSFRPGAAPAMRVLVEPGCGATSLADNGRAGLEAVRTMARRWHFTTDALDELLDLFLPPAPQGPLALWCALELRPGGVPGVKVYLNPAVGGEERSAATVREALRRLGHHQAFDSLPQGSGYPFLALDLGNWTEPRAKVYLRHDNLTAGRAARLSRTDSGLVPTAVEGFFRTAAGPGSDAGGLDGRPAQSCHSFTDPGAERPSGFTLYIPVRDYVRHDGEALARASTVLHHHGMDASVLHRALAALTERRPEDGVGLIAYLALAGQRDQPPRVTAYLSSEAYTVRPPVVETVRQPLSVG
notes: N-terminal His8 tag (pHIS8), expressed in E. coli BL21(DE3), Ni-NTA purified, 40 kDa, monomer
For B2, the Km (purified protein [3]) was 50 ± 2 µM, the kcat (purified protein [3]) was 0.40 ± 0.1 s⁻¹ and the Km (purified protein [4]) was 80 ± 6 µM. The kcat (purified protein [4]) was 0.40 ± 0.1 s⁻¹.

Reference: publication PMC3617294, “Novel Tryptophan Metabolism by a Potential Gene Cluster That Is Widely Distributed among Actinomycetes” (The Journal of Biological Chemistry, 2013)
